One block for each binder: values may come before it.
What was measured:
[1] = target: T1, huCD33-R69 stably expressed on Jurkat cells (human, UniProt P20138 18-364); assay: FACS on cells;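 note: fixed Jurkat cells bearing either CD33 variant, barcoded by dye, exposed to myc-tagged scFv periplasmic extracts, detected with anti-myc PE antibody and read by flow cytometry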
T1 construct: whole, on cells; >200,000 receptors per cell; also called CD33 WT; CD33^ARG69
Method: (§1) Jurkat cells were engineered to stably express either the huCD33-R69 or huCD33-G69 variant at >200,000 receptors per cell. Parental, huCD33-R69, and huCD33-G69 Jurkat cell lines were stained with differing levels of CellTrace Violet Cell Proliferation Kit (ThermoFisher, cat. #C34557) to barcode each cell line. Barcoded Jurkat cell lines were fixed with paraformaldehyde and incubated with myc-labeled scFv periplasmic extracts and a secondary anti-myc PE-conjugated monoclonal antibody. Appropriate positive and negative controls were used. Stained cells were analyzed by flow cytometry (CytoFLEX, Beckman Coulter, Inc.) and binding was assessed by change in PE mean fluorescence intensity (MFI) of the barcoded cell populations.

[2] = target: T2, huCD33-G69 stably expressed on Jurkat cells (human, UniProt P20138 18-364); assay: FACS on cells;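 note: fixed Jurkat cells bearing either CD33 variant, barcoded by dye, exposed to myc-tagged scFv periplasmic extracts, detected with anti-myc PE antibody and read by flow cytometry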
T2 construct: whole, on cells; >200,000 receptors per cell; also called CD33 Mutant; CD33 R69G
T2 sequence (P20138 18-364 R69G): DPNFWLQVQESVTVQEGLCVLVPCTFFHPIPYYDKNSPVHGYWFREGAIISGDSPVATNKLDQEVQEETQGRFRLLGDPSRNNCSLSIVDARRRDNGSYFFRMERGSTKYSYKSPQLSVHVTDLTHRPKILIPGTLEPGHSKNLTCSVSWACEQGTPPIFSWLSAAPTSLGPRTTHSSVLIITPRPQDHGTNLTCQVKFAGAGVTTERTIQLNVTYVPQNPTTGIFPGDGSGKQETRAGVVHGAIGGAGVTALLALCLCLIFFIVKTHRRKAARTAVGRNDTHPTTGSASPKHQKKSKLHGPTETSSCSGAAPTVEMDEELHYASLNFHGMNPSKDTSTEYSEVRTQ
Method: as §1

[3] = target: T3, huCD33-G69-Fc recombinant protein (human, UniProt P20138 18-259); assay: BLI;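 note: scFvs from periplasmic extracts captured on biosensors via anti-V5 antibody, exposed to recombinant huCD33 variants for 2 min, 5 min dissociation, scored as binding, no binding or ambiguous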
T3 construct: extracellular domain; also called CD33 R69G
T3 sequence (P20138 18-259 R69G): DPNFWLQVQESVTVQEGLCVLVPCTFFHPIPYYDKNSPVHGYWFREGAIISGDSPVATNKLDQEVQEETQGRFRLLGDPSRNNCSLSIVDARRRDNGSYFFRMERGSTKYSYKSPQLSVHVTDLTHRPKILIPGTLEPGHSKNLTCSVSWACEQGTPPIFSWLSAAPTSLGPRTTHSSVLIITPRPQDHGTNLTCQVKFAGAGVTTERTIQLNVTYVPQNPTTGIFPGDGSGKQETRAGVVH
Method: (§2) Discovered scFvs were analyzed for binding to huCD33-R69-His or huCD33-G69-Fc recombinant proteins (for anti-CD33 scFvs; for CLL-1 scFvs, huCLL1-K244-Avi-Tev-His or huCLL1-Q244-Avi-Tev-His were used; for FLT3, huFLT3-T227-His or huFLT3-M227-Fc were used) using BLI on a ForteBio Octet HTX instrument. Streptavidin-coated biosensors were loaded with biotinylated anti-V5 tag monoclonal antibody for 5 min and were then quenched and blocked with 20 μM amine-PEG2-Biotin for 5 min. scFvs were captured on biosensors from scFv clone periplasmic extracts. huCD33 (or huCLL-1, or huFLT3) proteins were then associated with the captured scFvs for 2 minutes, followed by dissociation with buffer (1×HBST [10 mM HEPES pH 7.4, 150 mM NaCl, 0.05% Tween-20], 1 g/L BSA) for 5 minutes. […] Data was fitted with 1:1 Langmuir equation and off-rate values were reported.

huFLT3-M227-Fc = target: T4, huFLT3-M227-Fc (human, UniProt P36888 27-543); assay: BLI
T4 construct: extracellular domain; also called FLT3 Mutant
Method: as §2

huFLT3-T227-His = target: T5, huFLT3-T227-His (human, UniProt P36888 27-543); assay: BLI
T5 construct: extracellular domain; also called FLT3 WT
Method: as §2

[4] = target: T6, huFLT3-T227 stably expressed on Ramos cells (human, UniProt P36888 27-993); assay: FACS on cells
T6 construct: whole, on cells; also called FLT3 WT
Method: (§3) For FLT3, Ramos cells were engineered to stably express either the huFLT3-T227 or huFLT3-M227 variant at >200,000 receptors per cell. Parental, huFLT3-T227, and huFLT3-M227 Ramos cell lines were stained with differing levels of CellTrace Violet Cell Proliferation Kit (ThermoFisher, cat. #C34557) to barcode each cell line. Barcoded Ramos cell lines were fixed with paraformaldehyde and incubated with myc-labeled scFv periplasmic extracts and a secondary anti-myc PE-conjugated monoclonal antibody. Appropriate positive and negative controls were used. Stained cells were analyzed by flow cytometry (CytoFLEX, Beckman Coulter, Inc.) and binding was assessed by change in PE mean fluorescence intensity (MFI) of the barcoded cell populations.

[5] = target: T7, huFLT3-M227 stably expressed on Ramos cells (human, UniProt P36888 27-993); assay: FACS on cells
T7 construct: whole, on cells; also called FLT3 Mutant
Method: as §3

T1 sequence (P20138 18-364): as the sequence (P20138 18-364 R69G) above, with G52R counted along it

B3: Polypeptide No. 217 (scFv, V domains shown)
VH: QVQLVQSGAEVKKPGSSVKVSCKASGYTFTTFYLHWVRQAPGQGLEWIGGIIPMSGTANYAQKFQGRVTITADESTSTAYMELSSLRSEDTAVYYCASGGENGMDVWGQGTTVTVSS
VL: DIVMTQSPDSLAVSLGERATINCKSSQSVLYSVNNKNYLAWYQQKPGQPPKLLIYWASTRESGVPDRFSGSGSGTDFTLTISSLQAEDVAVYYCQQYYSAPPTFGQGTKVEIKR
notes: scFv
binding result (huFLT3-M227-Fc): binds
binding result (huFLT3-T227-His): binds

B5: Polypeptide No. 21 (scFv, V domains shown)
VH: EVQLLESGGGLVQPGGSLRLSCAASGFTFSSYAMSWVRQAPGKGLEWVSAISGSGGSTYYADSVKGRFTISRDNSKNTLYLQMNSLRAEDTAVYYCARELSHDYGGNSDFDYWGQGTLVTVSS
VL: DIQMTQSPSSLSASVGDRVTITCQASQDISNNLNWYQQKPGKAPKLLIYAASGLQSGVPSRFSGSGSGTDFTLTISSLQPEDFATYYCQQANSFPLTFGGGTKVEIKR
notes: scFv
geometric mean MFI fold change over Jurkat parental [1]: 2 to 10 fold
geometric mean MFI fold change over Jurkat parental [2]: < 2 fold
binding result [3]: no binding

B7: Polypeptide No. 221 (scFv, V domains shown)
VH: QVQLVQSGAEVKKPGASVKVSCKASGYTFTDNYMHWVRQAPGQGLEWMGWMTPDSNNTGFAQNFQGRVTMTRDTSTSTVYMELSSLRSEDTAVYYCALGDGPFGMDVWGQGTTVTVSS
VL: DIVMTQSPLSLPVTPGEPASISCRSSQSLLHSNGYNYLDWYLQKPGQSPQLLIYGASYLQSGVPDRFSGSGSGTDFTLKISRVEAEDVGVYYCMQALQGPITFGQGTKVEIKR
notes: scFv
binding result (huFLT3-T227-His): no binding
FACS geometric mean fold change over Jurkat parental [4]: < 2 fold
FACS geometric mean fold change over Jurkat parental [5]: 2 to 10 fold

B8: Polypeptide No. 202 (scFv, V domains shown)
VH: QVQLVQSGAEVKKPGASVKVSCKASGYTFTNYYMHWVRQAPGQGLEWMGVINPSGGSTNYAQKFQGRVTMTRDTSTSTVYMELSSLRSEDTAVYYCARAGVGAFHIWGQGTMVTVSS
VL: DIQMTQSPSSLSASVGDRVTITCRASQSIRSWLAWYQQKPGKAPKLLIYDASNLETGVPSRFSGSGSGTDFTLTISSLQPEDFATYYCQQIYSLPRTFGQGTKVEIKR
notes: scFv
binding result (huFLT3-T227-His): no binding
FACS geometric mean fold change over Jurkat parental [4]: < 2 fold
FACS geometric mean fold change over Jurkat parental [5]: 2 to 10 fold

B9: Polypeptide No. 19 (scFv, V domains shown)
VH: EVQLLESGGGLVQPGGSLRLSCAASGFTFSSYWMHWVRQAPGKGLEWVSGFSGSARTYYADSVKGRFTISRDNSKNTLYLQMNSLRAEDTAVYYCAREWSGFDYWGQGTLVTVSS
VL: DIQMTQSPSSLSASVGDRVTITCRASQNIGPWLAWYQQKPGKAPKLLIYDAKDLHPGVPSRFSGSGSGTDFTLTISSLQPEDFATYYCQQANTFPMTFGQGTRLEIKR
notes: scFv
geometric mean MFI fold change over Jurkat parental [1]: > 30 fold
geometric mean MFI fold change over Jurkat parental [2]: < 2 fold
binding result [3]: no binding

B11: Polypeptide No. 227 (scFv, V domains shown)
VH: QVQLVQSGAEVKKPGSSVKVSCKASGYTLNELFMHWVRQAPGQGLEWVGGIIPMSGTTFYAQTFQGRVTITADESTSTAYMELSSLRSEDTAVYYCAKGVRQYSYGRYYYGMDVWGQGTLVTVSS
VL: DIQMTQSPSSLSASVGDRVTITCRASQSVSSYLNWYQQKPGKAPKLLIYGASNLQSGVPSRFSGSGSGTDFTLTISSLQPEDFATYYCQQSYTTPWTFGQGTRLEIKR
notes: scFv
binding result (huFLT3-M227-Fc): binds
binding result (huFLT3-T227-His): binds

B13: Polypeptide No. 13 (scFv, V domains shown)
VH: QVQLVQSGAEVKKPGASVKVSCKASGYSFTGYYMHWVRQAPGQGLEWMGWINPNSGGTYFAQNFQGRVTMTRDTSTSTVYMELSSLRSEDTAVYYCVKDRGDRVVTSYLDYWGQGTLVTVSS
VL: DIQMTQSPSSLSASVGDRVTITCRASQGIRNWLAWYQQKPGKAPKLLIYAASSLQSGVPSRFSGSGSGTDFTLTISSLQPEDFATYYCQQSYRTPYTFGQGTKLEIKR
notes: scFv
geometric mean MFI fold change over Jurkat parental [1]: 10 to 30 fold
geometric mean MFI fold change over Jurkat parental [2]: < 2 fold
binding result [3]: no binding

B14: Polypeptide No. 25 (scFv, V domains shown)
VH: QVQLVQSGAEVKKPGASVKVSCKASGYTFTGYYMHWVRQAPGQGLEWMGRINPNGGSTTYAQKFQGRVTMTRDTSTSTVYMELSSLRSEDTAVYYCARDDFYYYYLDFWGKGTTVTVSS
VL: DIQMTQSPSSLSASVGDRVTITCRASQSINDWLAWYQQKPGKAPKLLIYAASNLQSGVPSRFSGSGSGTDFTLTISSLQPEDFATYYCQQGYSTPPTFGQGTKVEIKR
notes: scFv
geometric mean MFI fold change over Jurkat parental [1]: > 30 fold
geometric mean MFI fold change over Jurkat parental [2]: < 2 fold
binding result [3]: no binding

B15: Polypeptide No. 209 (scFv, V domains shown)
VH: EVQLLESGGGLVQPGGSLRLSCAASGFAFSSYVLHWVRQAPGKGLEWVAGIWVDGHNKDYADSVKGRFTISRDNSKNTLYLQMNSLRAEDTAVYYCAREFGAAGSFQHWGQGTLVTVSS
VL: DIQMTQSPSSLSASVGDRVTITCRASQSISTWLAWYQQKPGKAPKLLIYDASKLETGVPSRFSGSGSGTDFTLTISSLQPEDFATYYCQQSYTTPYTFGQGTKVEIKR
notes: scFv
binding result (huFLT3-M227-Fc): binds
binding result (huFLT3-T227-His): binds

Continued, values first:

geometric mean MFI fold change over Jurkat parental [1]: 2 to 10 fold
geometric mean MFI fold change over Jurkat parental [2]: < 2 fold
binding result [3]: no binding
B1: Polypeptide No. 18 (scFv, V domains shown)
VH: QVQLVQSGAEVKKPGASVKVSCKASGYTFTDHYMHWVRQAPGQGLEWMGWINPNSGGTNYAQKFQGRVTMTRDTSTSTVYMELSSLRSEDTAVYYCAKDKFGDEGSGWYGDFQHWGQGTLVTVSS
VL: not shown
notes: scFv

binding result (huFLT3-M227-Fc): binds
binding result (huFLT3-T227-His): binds
B2: Polypeptide No. 216 (scFv, V domains shown)
VH: QVQLVQSGAEVKKPGSSVKVSCKASGNTFTMYYMHWVRQAPGQGLEWVGAIIPISGTVIYARKFQGRVTITADESTSTAYMELSSLRSEDTAVYYCARLSGGRMYDAFDIWGQGTTVTVSS
VL: not shown
notes: scFv

geometric mean MFI fold change over Jurkat parental [1]: 2 to 10 fold
geometric mean MFI fold change over Jurkat parental [2]: < 2 fold
binding result [3]: no binding
B4: Polypeptide No. 17 (scFv, V domains shown)
VH: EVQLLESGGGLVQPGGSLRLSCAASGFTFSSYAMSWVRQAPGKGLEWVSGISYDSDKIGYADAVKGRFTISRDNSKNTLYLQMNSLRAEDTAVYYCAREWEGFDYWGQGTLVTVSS
VL: DIQMTQSPSSLSASVGDRVTITCRASQGISNNLNWYQQKPGKAPKLLIYESSTLETGVPSRFSGSGSGTDFTLTISSLQPEDFATYYCQQSYSAPLTFGGGTKVEIKR
notes: scFv

geometric mean MFI fold change over Jurkat parental [1]: 2 to 10 fold
geometric mean MFI fold change over Jurkat parental [2]: < 2 fold
binding result [3]: no binding
B6: Polypeptide No. 16 (scFv, V domains shown)
VH: EVQLVESGGGLVKPGGSLRLSCAASGFTFSDNSMNWVRQAPGKGLEWVSYISSSGSTIYYADSVKGRFTISRDDSKNTLYLQMNSLKTEDTAVYYCARGRASSWPNWFDPWGQGTLVTVSS
VL: DIVMTQSPLSLPVTPGEPASISCRSSQSLLHSNGYNYLDWYLQKPGQSPQLLIYSASNLQSGVPDRFSGSGSGTDFTLKISRVEAEDVGVYYCMQALQTPPTFGQGTKLEIKR
notes: scFv

geometric mean MFI fold change over Jurkat parental [1]: 2 to 10 fold
geometric mean MFI fold change over Jurkat parental [2]: < 2 fold
binding result [3]: no binding
B10: Polypeptide No. 15 (scFv, V domains shown)
VH: EVQLLESGGGLVQPGGSLRLSCAASGFTFSIYEIHWVRQAPGKGLEWVSAISGSGGSTYYADSVKGRFTISRDNSKNTLYLQMNSLRAEDTAVYYCARSYCGGDCWDYYYYYGMDVWGQGTTVTVSS
VL: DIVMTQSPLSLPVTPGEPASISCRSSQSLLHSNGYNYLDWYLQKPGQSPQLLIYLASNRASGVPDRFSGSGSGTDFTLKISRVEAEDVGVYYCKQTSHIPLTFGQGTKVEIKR
notes: scFv

geometric mean MFI fold change over Jurkat parental [1]: > 30 fold
geometric mean MFI fold change over Jurkat parental [2]: < 2 fold
binding result [3]: no binding
B12: Polypeptide No. 14 (scFv, V domains shown)
VH: QVQLVQSGAEVKKPGASVKVSCKASGYTFTGYYMHWVRQAPGQGLEWMGIINPSGGSTSYAQKFQGRVTMTRDTSTSTVYMELSSLRSEDTAVYYCARAAPYYYDSSGYYSGGYYFDYWGQGTLVTVSS
VL: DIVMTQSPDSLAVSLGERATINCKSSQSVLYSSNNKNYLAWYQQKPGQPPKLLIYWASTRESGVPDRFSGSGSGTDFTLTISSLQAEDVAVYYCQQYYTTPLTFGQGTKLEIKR
notes: scFv

geometric mean MFI fold change over Jurkat parental [1]: > 30 fold
geometric mean MFI fold change over Jurkat parental [2]: < 2 fold
binding result [3]: no binding
B16: Polypeptide No. 1 (scFv, V domains shown)
VH: QVQLVQSGAEVKKPGASVKVSCKASGYSFTGYYIHWVRQAPGQGLEWMGWINPNSGGTNYAQKFQGRVTMTRDTSTSTVYMELSSLRSEDTAVYYCARDQWDGYNSGYFDYWGQGTLVTVSS
VL: DIQMTQSPSSLSASVGDRVTITCRASQTINDWLAWYQQKPGKAPKLLIYSASTLHSGVPSRFSGSGSGTDFTLTISSLQPEDFATYYCQQAYSTPWTFGQGTKVEIKR
notes: scFv

geometric mean MFI fold change over Jurkat parental [1]: 2 to 10 fold
geometric mean MFI fold change over Jurkat parental [2]: < 2 fold
binding result [3]: no binding
B17: Polypeptide No. 22 (scFv, V domains shown)
VH: QVQLVQSGAEVKKPGASVKVSCKASGYTFTDYYIHWVRQAPGQGLEWMGWINPNSGGTNYAQEFQGRVTMTRDTSTSTVYMELSSLRSEDTAVYYCARDHRIAVAGSYFDYWGQGTLVTVSS
VL: DIQMTQSPSSLSASVGDRVTITCRASRSIRTWLAWYQQKPGKAPKLLIYAASSLQTGVPSRFSGSGSGTDFTLTISSLQPEDFATYYCQQSYSTPYTFGQGTKLEIKR
notes: scFv

geometric mean MFI fold change over Jurkat parental [1]: 2 to 10 fold
geometric mean MFI fold change over Jurkat parental [2]: < 2 fold
binding result [3]: no binding
B18: Polypeptide No. 23 (scFv, V domains shown)
VH: QVQLVQSGAEVKKPGASVKVSCKASGYPFTAHYIHWVRQAPGQGLEWMGWINPNSGGTNYAQKFQGRVTMTRDTSTSTVYMELSSLRSEDTAVYYCARDVEMATIGAYWYFDLWGRGTLVTVSS
VL: DIQMTQSPSSLSASVGDRVTITCRASQGINNWLAWYQQKPGKAPKLLIYDASNLETGVPSRFSGSGSGTDFTLTISSLQPEDFATYYCQQANSFPPTFGQGTKLEIKR
notes: scFv

binding result (huFLT3-T227-His): no binding
FACS geometric mean fold change over Jurkat parental [4]: < 2 fold
B19: Polypeptide No. 203 (scFv, V domains shown)
VH: QVQLVQSGAEVKKPGSSVKVSCKASGYTLTELSMHWVRQAPGQGLEWMGRIIPISGTANYAQKFQGRVTITADESTSTAYMELSSLRSEDTAVYYCARAARYCSSTSCYWRDGMDVWGQGTTVTVSS
VL: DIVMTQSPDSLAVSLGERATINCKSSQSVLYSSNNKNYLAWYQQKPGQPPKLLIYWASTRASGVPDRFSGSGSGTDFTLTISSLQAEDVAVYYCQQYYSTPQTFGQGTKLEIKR
notes: scFv

— patent US20240101668A1 (WUGEN, published 2024)
